Experiments:
PemK(His)6 = target: T1, PemK(His)6 (E. coli (plasmid R100), UniProt P13976 24-133); assay: co-purification on Ni-NTA after co-expression
T1 construct: also called Kid

MazF(His)6 = MazF(His)6 (Escherichia coli, UniProt P0AE70 1-111); assay: tricine SDS-PAGE of the purified complex, densitometry
MazF = target: T2, MazF (Escherichia coli, UniProt P0AE70 1-111); assay: native PAGE, second dimension SDS-PAGE, densitometry
T2 sequence: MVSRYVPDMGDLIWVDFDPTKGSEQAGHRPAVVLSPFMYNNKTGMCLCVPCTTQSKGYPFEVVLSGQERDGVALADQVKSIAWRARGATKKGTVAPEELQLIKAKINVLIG

B1: PemI (other)
chain: MHTTRLKRVGGSVMLTVPPALLNALSLGTDNEVGMVIDNGRLIVEPYRRPQYSLAELLAQCDPNAEISAEEREWLDAPATGQEEI
binding result (PemK(His)6): binds

B2: MazE (other)
chain: MIHSSVKRWGNSPAVRIPATLMQALNLNIDDEVKIDLVDGKLIIEPVRKEPVFTLAELVNDITPENLHENIDWGEPKDKEVW
notes: also called antitoxin MazE; ChpAI
ratio of MazF(His)6 to MazE in the complex (MazF(His)6): ~2

B3: (His)6MazE (other)
chain: B2 chain
notes: also called wild-type (His)6MazE; MazE with N-terminal (His)6 tag
ratio of MazF to (His)6MazE in the complex (MazF): ~1.8
